Reference: FireProtDB (doi:10.1016/j.jmb.2003.11.050)

Conditions: Bacillus caldolyticus; pH 7; 25 °C; GdnHCl; Fluorescence; sodium cacodylate 100 mM; reversible: yes; whole UniProt chain shown

B1: Cold shock protein CspB wild type, P41016 (protein)
chain: MQRGKVKWFNNEKGYGFIEVEGGSDVFVHFTAIQGEGFKTLEEGQEVSFEIVQGNRGPQAANVVKL
  denaturant m value: 1.53 kcal/mol/M
  denaturant midpoint (higher = more stable): 2.36 M
  unfolding free energy: 3.63 kcal/mol
